The experiment deals with T1, recombinant protein of human IL-4Rα extracellular region (human, UniProt P24394 26-232).
T1 construct: range 26-232; Made in HEK293-6E cells, purified on nickel chelate; Used biotin-labeled on SA probes in the Fortebio assays and unlabeled as ELISA coat; also called hIL-4Rα; IL-4Rα recombinant protein
T1 sequence: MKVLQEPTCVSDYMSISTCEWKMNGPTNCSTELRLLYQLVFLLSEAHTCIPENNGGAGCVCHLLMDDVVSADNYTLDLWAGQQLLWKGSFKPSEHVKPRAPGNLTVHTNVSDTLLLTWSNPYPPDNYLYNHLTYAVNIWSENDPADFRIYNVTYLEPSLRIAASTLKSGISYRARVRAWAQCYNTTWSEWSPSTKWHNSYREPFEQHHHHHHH
The experiment is described as follows: BLI (Fortebio), biotin-labeled hIL-4Rα on SA probe, antibody 50-3.125 ug/ml. Here is the method:
PBS is added to any column of the 96-well plate, 100 ul/well, and the 96-well plate is placed in the probe holder cassette. When taking the probe, be careful to completely hang it on the holder to prevent the probe from touching the holder. The immobilized biotin-labeled hIL-4Rα is diluted to 5 ug/ml with PBS; a new 96-well plate is taken, and the diluted immobilized material is added column by column, 100 ul/well. […] A new 96-well plate is taken, and PBS is added to columns 1 and 2, 100 ul/well (the same buffer for both baseline and dissociation); the diluted immobilized material is added to column 3; the analyte diluted according to the series is added to column 4; 10 mM HCl (pH 1.9) is added to column 11; and PBS is added to column 12. The SA probe binds very strongly to the immobilized biotin material. When regenerated, the immobilized material is still bound to the probe, so it can be reused after immobilizing only once. Then the experimental method is set up in the Fortebio software, and then the experimental program is run for detection.
For orientation: In BLI a coated tip is dipped into the sample, and binding shifts an interference pattern.

Numbering of substitutions follows the chain as printed.

These results are taken from patent US20240092920A1 (KEYMED BIOSCIENCES, published 2024).

B1: Clone 25D6 (antibody, V domains shown)
VH: QVQLQQSGAELVKPGASVKMSCKASVNTFTGYNMHWVKQTPGQGLEWIGGLHPGNGDTSYNQKFKGKATLTADKSSNTAYMQLSSLTSEDSAVYYCALTTAGRAWFAYWGQGTLVTVSA
VL: DIQMTQSTSSLSASLGDRVTISCRASQDISNYLNWYQQKPDGTVKLLIYYTSRLHSGVPSRFSGSGSGTDYSLTISNLEQEDIATYFCQQGNTLPWTFGGGTKLEIK
notes: Chimeric IgG: mouse variable regions on human heavy and light chain constant regions (section 6)
As usually defined, the Kd is a measure of binding affinity in units of concentration. As a reminder, the koff is the rate constant with which the complex falls apart. Usually kon stands for a measure of how fast the partners come together. For B1, the dissociation constant Kd was determined as 5.9 nM, the koff is 0.000157 s⁻¹ and the kon was 26500 M⁻¹ s⁻¹.

B2: Clone 1D8 (antibody, V domains shown)
VH: B1 VH with K23T, S25T, V26G, T28I, V37I, K67R, N77S, T78S
VL: DIQMTQTTSSLSASLGDRVTISCRASQDISNYLNWYQQKPDGTVKLLIYYTSRLHSGVPSRFSGSGSGTDYSLTISNLEQEDIATYFCQQGNTLHTFGGGTKLEIK
notes: as for B1
For the molecule B2, the Kd is 8.06 nM, the koff was 0.000566 s⁻¹ and the kon was 70100 M⁻¹ s⁻¹.

B3: Clone 36F4 (antibody, V domains shown)
VH: B1 VH with T28I, G66D, K74R
VL: DIKMTQSTSSLSASLGDRVTISCRASQDISNYLNWYQQKPDGTVKLLIYYTSRLHSGVPSRFSGSGSGTDYSLTISNLEQEDIATYFCQQGNTLPPWTFGGGTKLEIK
notes: as for B1
For B3, the Kd was determined as 1.8 nM, the koff was 9.37e-05 s⁻¹ and the kon was found to be 50900 M⁻¹ s⁻¹.

B4: Clone 35A7 (antibody, V domains shown)
VH: B1 VH with Q5K, K23T, V26G, T28I, T30S, V37I
VL: B1 VL with T5N, V44I, H55Y, Q80E, L94I, W96Y
notes: Chimeric IgG (section 6)
In the case of B4, the Kd is below 0.001 nM, the koff is below 1e-07 s⁻¹ and the kon came to 24700 M⁻¹ s⁻¹.

B5: Clone 2H1 (antibody, V domains shown)
VH: B1 VH with A9T, V37I, T58S, K67R, A107P
VL: B1 VL with T5I, S63R, W96L, G100A, I106L
notes: as for B1
In the case of B5, the Kd stood at 5.27 nM, the koff came out at 0.000377 s⁻¹ and the kon amounted to 71600 M⁻¹ s⁻¹.

B6: Clone 34A2 (antibody, V domains shown)
VH: B1 VH with Q1E, T28I, G31S, K63N, N77S, L83V, S85N, A97V
VL: B1 VL
notes: as for B1
B6: the Kd was below 0.001 nM, the koff is below 1e-07 s⁻¹ and the kon came to 29000 M⁻¹ s⁻¹.

B7: Clone 34H11 (antibody, V domains shown)
VH: B1 VH with Q6E
VL: B1 VL with S7T, I83V
notes: as for B1
For B7, the Kd worked out at 6.6 nM, the koff amounted to 0.000176 s⁻¹ and the kon is 26900 M⁻¹ s⁻¹.

B8: Clone 35D5 (antibody, V domains shown)
VH: B1 VH with Q5K
VL: B1 VL
notes: as for B1
B8: the Kd was found to be 1.3 nM, the koff stood at 5.05e-05 s⁻¹ and the kon was 38700 M⁻¹ s⁻¹.

B9: Clone 1A6 (antibody, V domains shown)
VH: B1 VH with A9T, V37I, T58S, K67R, A107P
VL: B1 VL with S7T, W96P
notes: as for B1
Consider B9, for which the Kd stood at 11.3 nM, the koff turned out to be 0.000602 s⁻¹ and the kon was determined as 53000 M⁻¹ s⁻¹.

B10: Clone 31B9 (antibody, V domains shown)
VH: B1 VH with Q1E, T28I, G66D, K74R
VL: B1 VL
notes: as for B1
Turning to B10, the Kd is 1.9 nM, the koff was found to be 6.28e-05 s⁻¹ and the kon was determined as 33000 M⁻¹ s⁻¹.

B11: Clone 1H9 (antibody, V domains shown)
VH: B1 VH with T30A
VL: B1 VL with T5I
notes: as for B1
Turning to B11, the Kd came out at 8.9 nM, the koff turned out to be 0.000262 s⁻¹ and the kon is 29300 M⁻¹ s⁻¹.

B12: Clone 25G9 (antibody, V domains shown)
VH: B1 VH with Q1E, Q5K, Q6E, T28I, G66D, K74R
VL: B1 VL with K103R
notes: as for B1
In the case of B12, the Kd was below 0.001 nM, the koff was below 1e-07 s⁻¹ and the kon turned out to be 37900 M⁻¹ s⁻¹.

B13: Clone 24G10 (antibody, V domains shown)
VH: EVKLVESGGGLVKPGGSLKLSCAASGFTFSRYAMSWVRQTPEKRLEWVATISSGGSYTNYSDSVKGRFTISRDNVKNTLYLQMSSLKSEDSAMYYCARATARATEFAYWGQGTLVTVSA
VL: DIQMTQSTSSLSASLGDRVTISCRASQDISNYLNWYQQKPDGTVKLLIYYTSRLYSGVPSRFSGSGSGTDYSLTISNLEQEDIATYFCQQGNTLPPTFGGGTKLEI
notes: as for B1
B13: the Kd came to 0.94 nM, the koff turned out to be 2.37e-05 s⁻¹ and the kon turned out to be 25300 M⁻¹ s⁻¹.
